Source: the supplement of paper PMC9112550, “Optimization of the antimicrobial peptide Bac7 by deep mutational scanning” (BMC Biology, 2022)

Tested on: Escherichia coli TOP10
Assay: shrunken log2 fold change of peptide-encoding DNA abundance (4.5 h post-induction vs induction); higher = less antimicrobial activity (less host growth inhibition)
Conditions: time post-induction: 4.5 h; library: site-saturation at positions 5, 18, 19, 20
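Further: peptides expressed intracellularly from a pBAD plasmid library in pooled LB shake-flask culture, induced with 0.3% L-arabinose, DNA abundance read by NGS, three biological replicates, DESeq2 with apeglm shrinkage.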

Sequence	shrunken log2 fold change
RRIRRRPPRLPRPRPRPLLRPRP	0.44
RRIRRRPPRLPRPRPRPLMWPRP	0.163
RRIRRRPPRLPRPRPRPLMYPRP	0.0279
RRIRRRPPRLPRPRPRPLNLPRP	0.0248
RRIRRRPPRLPRPRPRPLNNPRP	-0.338
RRIRRRPPRLPRPRPRPLPFPRP	-0.344
RRIRRRPPRLPRPRPRPLPHPRP	0.485
RRIRRRPPRLPRPRPRPLQKPRP	0.44
RRIRRRPPRLPRPRPRPLQLPRP	-0.101
RRIRRRPPRLPRPRPRPLRRPRP	0.654
RRIRRRPPRLPRPRPRPLSEPRP	0.382
RRIRRRPPRLPRPRPRPLSVPRP	0.298
RRIRRRPPRLPRPRPRPLTRPRP	0.234
RRIRRRPPRLPRPRPRPLVHPRP	0.223
RRIRRRPPRLPRPRPRPLYEPRP	-0.0905
RRIRRRPPRLPRPRPRPLYSPRP	-0.0185
RRIRRRPPRLPRPRPRPMDIPRP	-0.168
RRIRRRPPRLPRPRPRPMDVPRP	0.0427
RRIRRRPPRLPRPRPRPMEHPRP	0.131
RRIRRRPPRLPRPRPRPMEIPRP	-0.0055
RRIRRRPPRLPRPRPRPMFNPRP	-0.146
RRIRRRPPRLPRPRPRPMIKPRP	0.0444
RRIRRRPPRLPRPRPRPMKAPRP	0.0483
RRIRRRPPRLPRPRPRPMLSPRP	0.00534
RRIRRRPPRLPRPRPRPMMAPRP	0.142

Sequence	shrunken log2 fold change
RRIRRRPPRLPRPRPRPMMIPRP	-0.185
RRIRRRPPRLPRPRPRPMNAPRP	0.15
RRIRRRPPRLPRPRPRPMNQPRP	0.0252
RRIRRRPPRLPRPRPRPMNVPRP	-0.156
RRIRRRPPRLPRPRPRPMPVPRP	0.388
RRIRRRPPRLPRPRPRPMQDPRP	0.452
RRIRRRPPRLPRPRPRPMQKPRP	0.026
RRIRRRPPRLPRPRPRPMQLPRP	0.596
RRIRRRPPRLPRPRPRPMQVPRP	-0.198
RRIRRRPPRLPRPRPRPMRNPRP	0.959
RRIRRRPPRLPRPRPRPMSAPRP	0.128
RRIRRRPPRLPRPRPRPMVCPRP	0.0487
RRIRRRPPRLPRPRPRPMYRPRP	0.0278
RRIRRRPPRLPRPRPRPNCCPRP	0.0381
RRIRRRPPRLPRPRPRPNCGPRP	0.315
RRIRRRPPRLPRPRPRPNCLPRP	0.312
RRIRRRPPRLPRPRPRPNCMPRP	0.0934
RRIRRRPPRLPRPRPRPNDAPRP	-0.0546
RRIRRRPPRLPRPRPRPNDFPRP	-0.189
RRIRRRPPRLPRPRPRPNDWPRP	0.24
RRIRRRPPRLPRPRPRPNEKPRP	-0.023
RRIRRRPPRLPRPRPRPNEQPRP	0.324
RRIRRRPPRLPRPRPRPNFDPRP	-0.102
RRIRRRPPRLPRPRPRPNFGPRP	0.105
RRIRRRPPRLPRPRPRPNGKPRP	0.02

Sequence	shrunken log2 fold change
RRIRRRPPRLPRPRPRPNGPPRP	0.384
RRIRRRPPRLPRPRPRPNGRPRP	-0.0152
RRIRRRPPRLPRPRPRPNHKPRP	-0.226
RRIRRRPPRLPRPRPRPNICPRP	0.0828
RRIRRRPPRLPRPRPRPNIHPRP	0.564
RRIRRRPPRLPRPRPRPNIYPRP	-0.252
RRIRRRPPRLPRPRPRPNKGPRP	0.128
RRIRRRPPRLPRPRPRPNLGPRP	0.00298
RRIRRRPPRLPRPRPRPNMYPRP	-0.16
RRIRRRPPRLPRPRPRPNNTPRP	0.00573
RRIRRRPPRLPRPRPRPNQIPRP	-0.349
RRIRRRPPRLPRPRPRPNRWPRP	0.107
RRIRRRPPRLPRPRPRPNTIPRP	-0.372
RRIRRRPPRLPRPRPRPNTMPRP	-0.262
RRIRRRPPRLPRPRPRPNTWPRP	0.0852
RRIRRRPPRLPRPRPRPNTYPRP	-0.336
RRIRRRPPRLPRPRPRPNVCPRP	0.0167
RRIRRRPPRLPRPRPRPNVDPRP	-0.125
RRIRRRPPRLPRPRPRPNWCPRP	0.177
RRIRRRPPRLPRPRPRPNWKPRP	-0.0144
RRIRRRPPRLPRPRPRPPADPRP	0.781
RRIRRRPPRLPRPRPRPPAQPRP	0.535
RRIRRRPPRLPRPRPRPPCAPRP	0.667
RRIRRRPPRLPRPRPRPPDGPRP	0.326
RRIRRRPPRLPRPRPRPPDRPRP	0.21

Sequence	shrunken log2 fold change
RRIRRRPPRLPRPRPRPPDTPRP	0.436
RRIRRRPPRLPRPRPRPPESPRP	0.26
RRIRRRPPRLPRPRPRPPEVPRP	0.821
RRIRRRPPRLPRPRPRPPFEPRP	0.61
RRIRRRPPRLPRPRPRPPFGPRP	0.453
RRIRRRPPRLPRPRPRPPGKPRP	0.978
RRIRRRPPRLPRPRPRPPGSPRP	0.413
RRIRRRPPRLPRPRPRPPGVPRP	0.704
RRIRRRPPRLPRPRPRPPHGPRP	0.596
RRIRRRPPRLPRPRPRPPKPPRP	0.824
RRIRRRPPRLPRPRPRPPKTPRP	0.108
RRIRRRPPRLPRPRPRPPMFPRP	0.26
RRIRRRPPRLPRPRPRPPMMPRP	0.21
RRIRRRPPRLPRPRPRPPMVPRP	0.285
RRIRRRPPRLPRPRPRPPNDPRP	0.605
RRIRRRPPRLPRPRPRPPNIPRP	-0.0641
RRIRRRPPRLPRPRPRPPNVPRP	0.115
RRIRRRPPRLPRPRPRPPPDPRP	1.35
RRIRRRPPRLPRPRPRPPQPPRP	1.26
RRIRRRPPRLPRPRPRPPRVPRP	1.18
RRIRRRPPRLPRPRPRPPTSPRP	0.54
RRIRRRPPRLPRPRPRPPWVPRP	0.535
RRIRRRPPRLPRPRPRPPYAPRP	0.774
RRIRRRPPRLPRPRPRPPYEPRP	0.492
RRIRRRPPRLPRPRPRPPYSPRP	0.122

Sequence	shrunken log2 fold change
RRIRRRPPRLPRPRPRPPYWPRP	0.625
RRIRRRPPRLPRPRPRPQAAPRP	0.0105
RRIRRRPPRLPRPRPRPQCVPRP	0.0427
RRIRRRPPRLPRPRPRPQFRPRP	-0.165
RRIRRRPPRLPRPRPRPQFSPRP	-0.326
RRIRRRPPRLPRPRPRPQGGPRP	0.0141
RRIRRRPPRLPRPRPRPQGMPRP	0.133
RRIRRRPPRLPRPRPRPQGWPRP	0.294
RRIRRRPPRLPRPRPRPQKKPRP	-0.0695
RRIRRRPPRLPRPRPRPQMEPRP	0.0751
RRIRRRPPRLPRPRPRPQMYPRP	-0.183
RRIRRRPPRLPRPRPRPQPAPRP	0.387
RRIRRRPPRLPRPRPRPQPHPRP	0.396
RRIRRRPPRLPRPRPRPQPRPRP	0.5
RRIRRRPPRLPRPRPRPQQHPRP	-0.0327
RRIRRRPPRLPRPRPRPQQPPRP	0.325
RRIRRRPPRLPRPRPRPQRDPRP	0.179
RRIRRRPPRLPRPRPRPQRFPRP	0.294
RRIRRRPPRLPRPRPRPQTEPRP	-0.0572
RRIRRRPPRLPRPRPRPQTMPRP	0.0791
RRIRRRPPRLPRPRPRPQWMPRP	0.139
RRIRRRPPRLPRPRPRPQYLPRP	-0.0489
RRIRRRPPRLPRPRPRPQYYPRP	-0.968
RRIRRRPPRLPRPRPRPRAYPRP	-0.0105
RRIRRRPPRLPRPRPRPRESPRP	0.59

Sequence	shrunken log2 fold change
RRIRRRPPRLPRPRPRPRFCPRP	0.421
RRIRRRPPRLPRPRPRPRGVPRP	0.816
RRIRRRPPRLPRPRPRPRHLPRP	0.197
RRIRRRPPRLPRPRPRPRHTPRP	0.268
RRIRRRPPRLPRPRPRPRIKPRP	0.142
RRIRRRPPRLPRPRPRPRIRPRP	0.179
RRIRRRPPRLPRPRPRPRIWPRP	0.666
RRIRRRPPRLPRPRPRPRMHPRP	0.516
RRIRRRPPRLPRPRPRPRMIPRP	-0.136
RRIRRRPPRLPRPRPRPRMSPRP	0.938
RRIRRRPPRLPRPRPRPRNVPRP	0.226
RRIRRRPPRLPRPRPRPRPKPRP	1.05
RRIRRRPPRLPRPRPRPRPPPRP	0.931
RRIRRRPPRLPRPRPRPRQGPRP	0.298
RRIRRRPPRLPRPRPRPRQYPRP	-0.191
RRIRRRPPRLPRPRPRPRRGPRP	0.788
RRIRRRPPRLPRPRPRPRSEPRP	0.342
RRIRRRPPRLPRPRPRPRTRPRP	0.528
RRIRRRPPRLPRPRPRPRTSPRP	0.108
RRIRRRPPRLPRPRPRPRTTPRP	0.406
RRIRRRPPRLPRPRPRPRVCPRP	0.89
RRIRRRPPRLPRPRPRPRVHPRP	0.264
RRIRRRPPRLPRPRPRPRWAPRP	0.206
RRIRRRPPRLPRPRPRPRWIPRP	0.356
RRIRRRPPRLPRPRPRPRWSPRP	0.498
